# From the supplement of paper PMC7125110
# ± gives the standard error. Fewer inactive variants are shown than the library holds.
# B1: glmS ribozyme (parent)
# chain: AUAAAAGCGCCAGAACUACAGAAAUGUAGUUGACGAGGAGGAGGUUUAUCGAAUUUUCGGCGGAUGCCUCCAAA
# Legend:
# Settings in all cases: with glucosamine-6-phosphate
# glucosamine-6-phosphate [1] = variants of: B1; test: self-cleavage kobs at 640 uM GlcN6P; higher = faster cleavage; RNA array
# In short: (§1)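 Barcoded ribozyme variants on sequenced MiSeq chips were transcribed in situ by E. coli RNA polymerase and followed at 37 °C through a hybridised Cy3 probe. Glucosamine-6-phosphate at 40 μM to 10 mM in HEPES/KCl/Mg(OAc)2 buffer was flowed in, and tiles were imaged over ~14 h. Signals were normalised to baseline and to non-cleaving reference variants, and per-tile medians were fit to one- or two-exponential decays to give kobs. Weighted Michaelis–Menten fits across concentrations gave kcat and KM.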
# glucosamine-6-phosphate [2] = variants of: B1; test: self-cleavage kobs at 2500 uM GlcN6P; higher = faster cleavage; RNA array
# In short: as §1
# glucosamine-6-phosphate [3] = variants of: B1; test: self-cleavage kobs at 10000 uM GlcN6P; higher = faster cleavage; RNA array
# In short: as §1
Variant,self-cleavage kobs at 640 uM GlcN6P (glucosamine-6-phosphate [1]),self-cleavage kobs at 2500 uM GlcN6P (glucosamine-6-phosphate [2]),self-cleavage kobs at 10000 uM GlcN6P (glucosamine-6-phosphate [3])
C11U G44U C70G,< 1e-05 s⁻¹,,
G9C A14G G37U G62C C71A,< 1e-05 s⁻¹,< 1e-05 s⁻¹,
A6G U57A C68G,7.18e-05 ± 2.3e-05 s⁻¹,,
A42U C58A C61G,< 1e-05 s⁻¹,< 1e-05 s⁻¹,
U47A G66C,0.000329 ± 7.2e-05 s⁻¹,0.000448 ± 0.00013 s⁻¹,
C8U G13A G35A G38A G63A C68U,0.001 ± 0.00031 s⁻¹,,
C16A G51U C67G,0.000109 ± 4.2e-05 s⁻¹,,
G29A U56A A64G,0.000408 ± 0.00012 s⁻¹,0.00201 ± 0.00043 s⁻¹,0.00195 ± 0.00041 s⁻¹
C11U U47A A53G U56A C70G,5.74e-05 ± 1.8e-05 s⁻¹,0.000104 ± 3.4e-05 s⁻¹,
G40A G51A U55A,< 1e-05 s⁻¹,,
G38U C50A,< 1e-05 s⁻¹,< 1e-05 s⁻¹,
A6G A36C G38C,< 1e-05 s⁻¹,,< 1e-05 s⁻¹
C8G C10A G41A,< 1e-05 s⁻¹,< 1e-05 s⁻¹,
A39C U45G C70G,< 1e-05 s⁻¹,< 1e-05 s⁻¹,
C10A U46C U54G,< 1e-05 s⁻¹,,
U54A C67U C68A,6.98e-05 ± 2.2e-05 s⁻¹,,

Variant,self-cleavage kobs at 640 uM GlcN6P (glucosamine-6-phosphate [1]),self-cleavage kobs at 2500 uM GlcN6P (glucosamine-6-phosphate [2]),self-cleavage kobs at 10000 uM GlcN6P (glucosamine-6-phosphate [3])
C34A G41A,< 1e-05 s⁻¹,< 1e-05 s⁻¹,
G7A G37U U46G U55C C58A,< 1e-05 s⁻¹,,
G43U G66U C71G,< 1e-05 s⁻¹,< 1e-05 s⁻¹,
A6G C11G G13C C61G,< 1e-05 s⁻¹,< 1e-05 s⁻¹,
G35C G44C,< 1e-05 s⁻¹,,< 1e-05 s⁻¹
U31A G60U C71A,< 1e-05 s⁻¹,< 1e-05 s⁻¹,
A6G G41A G43C C50G C61U,< 1e-05 s⁻¹,< 1e-05 s⁻¹,
C10A G35C C70U,< 1e-05 s⁻¹,,
A42C U46G U49A,< 1e-05 s⁻¹,,
A33U U49A G51C,< 1e-05 s⁻¹,,
U31A U55G C67U,0.000859 ± 0.00023 s⁻¹,0.000519 ± 0.00025 s⁻¹,
G44U A48U A64G C67G,0.000188 ± 7.9e-05 s⁻¹,0.000485 ± 0.00017 s⁻¹,
A33C G44C C58U C61A,< 1e-05 s⁻¹,< 1e-05 s⁻¹,
G32U A52U C58U,< 1e-05 s⁻¹,< 1e-05 s⁻¹,
A6U C10A A14U C70U,0.000391 ± 8.2e-05 s⁻¹,5.43e-05 ± 2.3e-05 s⁻¹,
C34U U49A U55G C61U C68G,0.000585 ± 0.00016 s⁻¹,,
